We go through two molecules from publication PMC11133372 (Communications Biology, 2024).

This assay addresses T1, human epidermal growth factor receptor 2 (HER2) (Homo sapiens, UniProt P04626).
T1 construct: human HER2, cDNA expressed as HER2-T2A-mCherry; HER2 on the cell surface, mCherry intracellular after T2A self-cleavage; residues of it may stay on the C-terminus after self-cleavage (surmise); also called K562/HER2 cells; source: K562, lentiviral transduction with pCSII/HER2-mCherry, on the cell surface
Briefly: flow cytometry on cells; K562/HER2 cells incubated with 0.5-1600 nM purified scFv-scFc-H6 for 90 min at 4 °C, detected with AF488-conjugated anti-HisTag antibody; 3% FBS-PBS. The note with it: one partner purified.

B1: scFv(Niv), scFv of PD-1 targeting nivolumab, purified as scFv-scFc-H6 fusion protein (Fc fusion)
VH: QVQLVESGGGVVQPGRSLRLDCKASGITFSNSGMHWVRQAPGKGLEWVAVIWYDGSKRYYADSVKGRFTISRDNSKNTLFLQMNSLRAEDTAVYYCATNDDYWGQGTLVTVSS
VL: EIVLTQSPATLSLSPGERATLSCRASQSVSSYLAWYQQKPGQAPRLLIYDASNRATGIPARFSGSGSGTDFTLTISSLEPEDFAVYYCQQSSNWPRTFGQGTKVEIK
notes: scFv of nivolumab; Control scFv; not shown: single-chain Fc (two human IgG1 Fc domains; residues 104-330 of UniProt P01857), C-terminal, kept; His6, C-terminal, kept
As for B1, the binding result was “no binding (tested: 1600 nM)”.

B2: scFv(Dac), scFv of the CD25-targeting monoclonal antibody daclizumab, purified as scFv-scFc-H6 fusion protein (Fc fusion)
VH: QVQLVQSGAEVKKPGSSVKVSCKASGYTFTSYRMHWVRQAPGQGLEWIGYINPSTGYTEYNQKFKDKATITADESTNTAYMELSSLRSEDTAVYYCARGGGVFDYWGQGTLVTVSS
VL: DIQMTQSPSTLSASVGDRVTITCSASSSISYMHWYQQKPGKAPKLLIYTTSNLASGVPARFSGSGSGTEFTLTISSLQPDDFATYYCHQRSTYPLTFGQGTKVEVK
notes: scFv of daclizumab; Control scFv; not shown: single-chain Fc (two human IgG1 Fc domains; residues 104-330 of UniProt P01857), C-terminal, kept; His6, C-terminal, kept
With B2, the binding result was “no binding (tested: 1600 nM)”.
